Measurements from the supplement of paper PMC6755084.

B1: F1*; a variant is named by its letters at N, in order (parent)
chain: GAGACCGCAACTGAAAAGTTGTTATCACTTGTCGNANNNNNNTTNGNNNGGNTNNNGTTCTGCACGTAGAAGCAAAAGGC
B2: F1*; the commonest letter at each place (parent)
chain: GAGACCGCAACTGAAAAGTTGTTATCACTTGTCGTAAGACACTTTGGATGGGTTGAAGTTCTGCACGTAGAAGCAAAAGGC

Variants of: B1
Assay: fraction ligated after 30 min (ligated reads / total reads); higher = more ligase activity
Settings: with F1*sub RNA substrate (template-directed ligation), 42 °C
Description: (§1)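 Chip-synthesised pool of F1* ligase ribozyme variants (all single and double substitutions, single, double and triple deletions in the catalytic core and GAA bulge, plus designed variants) was transcribed with T7 and reacted as a pool with excess substrate F1*sub for 30 min at 42 C in 50 mM EPPS pH 8.5, 25 mM MgCl2. Ligated and unligated bands were separated by PAGE, barcoded by RT and deep sequenced; fraction ligated = ligated reads / total reads per variant, relative activity = FL / FL of wild type (0.826). Sequences are the DNA template of the ribozyme.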

First: TAGACACTGATTGAA
Second: AGACACTGATGTGAA
The fraction ligated of the first is lower: 0.703 for the first, 0.843 for the second.

Compared with TAGACACTGTGTGAA, TAGACACGATGTGAA is higher in fraction ligated: 0.354 for the first, 0.799 for the second.

Compared with TGACACTGATGTGAA, TAGAACTGATGTGAA is lower in fraction ligated: 0.849 for the first, 0.821 for the second.

Going from TAGACACTGATGTCC to TAGACACTGATGTCG, the fraction ligated falls from 0.0263 to 0.0205.

First: TAGACACTGATGTCA
Second: TAGACACTGATGTCT
The fraction ligated of the first is higher: 0.792 for the first, 0.0184 for the second.

Compared with TAGACACTGATGTAT, TAGACACTGATGTAG is higher in fraction ligated: 0.762 for the first, 0.773 for the second.

Compared with TAGACACTGATGTAA, TAGACACTGATGTAC is lower in fraction ligated: 0.834 for the first, 0.56 for the second.

First: TAGACCTGATGTGAA
Second: TAACACTGATGTGAA
The fraction ligated of the first is higher: 0.839 for the first, 0.832 for the second.

Compared with TAGACATGATGTGAA, TAGCACTGATGTGAA is lower in fraction ligated: 0.829 for the first, 0.827 for the second.

First: TAGACACTATGTGAA
Second: TAGACACTGAGTGAA
The fraction ligated of the first is higher: 0.782 for the first, 0.168 for the second.

First: TAGACACTGATGTTC
Second: TAGACACTGATGTTG
The fraction ligated of the first is lower: 0.0084 for the first, 0.0257 for the second.

First: TAGACACTGATGTTT
Second: TAGACACTGATGTTA
The fraction ligated of the first is lower: 0.0147 for the first, 0.834 for the second.

Going from TAGACACTGATGTGC to TAGACACTGATGTGG, the fraction ligated falls from 0.802 to 0.352.

Compared with TAGACACTGATGTGA, TAGACACTGATGTGT is lower in fraction ligated: 0.848 for the first, 0.349 for the second.

Variants of: B2
Assay: as above
Settings: with F1*sub RNA substrate (template-directed ligation), 42 °C
Description: as §1

Going from T23G A56G to T23G A56T, the fraction ligated falls from 0.792 to 0.772.

Going from T23G A56C to T23G T35C, the fraction ligated rises from 0.794 to 0.827.

Going from T23G T35G to T23G T35A, the fraction ligated falls from 0.86 to 0.834.

First: T23G A37G
Second: T23G A37T
The fraction ligated of the first is higher: 0.867 for the first, 0.821 for the second.

Going from T23G A37C to T23A T30C, the fraction ligated falls from 0.819 to 0.793.

First: T23A T30G
Second: T23A T30A
The fraction ligated of the first is higher: 0.803 for the first, 0.797 for the second.

Compared with T23G A39C, T23G A39G is higher in fraction ligated: 0.776 for the first, 0.867 for the second.

Compared with T23G A39T, A24C A41T is lower in fraction ligated: 0.79 for the first, 0.614 for the second.

Compared with A24C A41G, A24C A41C is lower in fraction ligated: 0.608 for the first, 0.00606 for the second.

Going from T23A C28T to T23A C28A, the fraction ligated rises from 0.753 to 0.787.

First: T23A C28G
Second: T23A A37G
The fraction ligated of the first is lower: 0.804 for the first, 0.84 for the second.

Going from T23A A37C to T23A A37T, the fraction ligated falls from 0.82 to 0.811.

Going from T23C A37T to T23C A37G, the fraction ligated rises from 0.796 to 0.837.

First: T23C A37C
Second: T23C C40T
The fraction ligated of the first is higher: 0.821 for the first, 0.811 for the second.

First: T23C C40A
Second: T23C C40G
The fraction ligated of the first is higher: 0.792 for the first, 0.766 for the second.

Going from T23A C26T to T23A C26A, the fraction ligated falls from 0.794 to 0.318.

First: T23A C26G
Second: T23C A36G
The fraction ligated of the first is lower: 0.116 for the first, 0.817 for the second.

Compared with T23C A36T, T23C A36C is higher in fraction ligated: 0.823 for the first, 0.828 for the second.

Compared with T23A A56T, T23A A56C is lower in fraction ligated: 0.754 for the first, 0.653 for the second.

First: T23A A56G
Second: T23C G31A
The fraction ligated of the first is higher: 0.686 for the first, 0.619 for the second.

Compared with T23C G31C, T23C G31T is higher in fraction ligated: 0.666 for the first, 0.787 for the second.

Going from T23A G50A to T23A G50T, the fraction ligated rises from 0.477 to 0.699.

Going from T23A G50C to T23G A27C, the fraction ligated rises from 0.255 to 0.785.

Going from T23G A27T to T23G A27G, the fraction ligated falls from 0.801 to 0.788.

Compared with T23A G38C, T23A G38T is lower in fraction ligated: 0.799 for the first, 0.795 for the second.

Going from T23A G38A to T23A, the fraction ligated rises from 0.809 to 0.837.

Compared with T23C, T23G is higher in fraction ligated: 0.846 for the first, 0.855 for the second.

First: T23G C40A
Second: T23G C40T
The fraction ligated of the first is higher: 0.873 for the first, 0.864 for the second.

Going from T23G C40G to T23C G34C, the fraction ligated falls from 0.812 to 0.774.

Going from T23C G34A to T23C G34T, the fraction ligated falls from 0.819 to 0.804.

First: T23G T49C
Second: T23G T49G
The fraction ligated of the first is lower: 0.748 for the first, 0.761 for the second.

Going from T23G T49A to T23C T30A, the fraction ligated rises from 0.766 to 0.802.

First: T23C T30G
Second: T23C T30C
The fraction ligated of the first is higher: 0.833 for the first, 0.789 for the second.

Compared with T22C, T23C A57C is lower in fraction ligated: 0.819 for the first, 0.81 for the second.

Going from T23C A57G to T23C A57T, the fraction ligated falls from 0.851 to 0.794.

Compared with T23A G55A, T23A G55T is lower in fraction ligated: 0.801 for the first, 0.783 for the second.

Going from T23A G55C to T23C T49G, the fraction ligated rises from 0.292 to 0.78.

Going from T23C T49A to T23C T49C, the fraction ligated falls from 0.792 to 0.715.

Going from T23G A48C to T23G A48T, the fraction ligated rises from 0.74 to 0.781.

First: T23G A48G
Second: T23A A24T
The fraction ligated of the first is higher: 0.788 for the first, 0.781 for the second.

First: T23A A24C
Second: T23A A24G
The fraction ligated of the first is higher: 0.782 for the first, 0.764 for the second.

Going from T23A T45A to T23A T45G, the fraction ligated falls from 0.373 to 0.0214.

Going from T23A T45C to T23A G46C, the fraction ligated rises from 0.222 to 0.731.

Going from T23A G46A to T23A G46T, the fraction ligated falls from 0.749 to 0.479.

Going from T23C A27C to T23C A27T, the fraction ligated rises from 0.775 to 0.804.

First: T23C A27G
Second: T23C C42A
The fraction ligated of the first is higher: 0.781 for the first, 0.762 for the second.

Compared with T23C C42T, T23C C42G is lower in fraction ligated: 0.804 for the first, 0.761 for the second.

First: T23G G55C
Second: T23G G55A
The fraction ligated of the first is lower: 0.809 for the first, 0.832 for the second.

Going from T23G G55T to A24C A27C, the fraction ligated falls from 0.826 to 0.557.

Going from A24C A27T to A24C A27G, the fraction ligated rises from 0.668 to 0.692.

Compared with T23A G47T, T23A G47C is lower in fraction ligated: 0.09 for the first, 0.0295 for the second.

Compared with T23A G47A, T23G A24C A27G C28A C42G G47A is higher in fraction ligated: 0.783 for the first, 0.812 for the second.

Going from T23G T30C to T23G T30G, the fraction ligated rises from 0.765 to 0.8.

Going from T23G T30A to T23A C33A, the fraction ligated rises from 0.808 to 0.855.

Compared with T23A C33T, T23A C33G is lower in fraction ligated: 0.848 for the first, 0.838 for the second.

Going from T23A T35G to T23A T35A, the fraction ligated rises from 0.817 to 0.827.

First: T23A T35C
Second: T23C G55T
The fraction ligated of the first is higher: 0.811 for the first, 0.786 for the second.

Going from T23C G55A to T23C G55C, the fraction ligated falls from 0.783 to 0.469.

Going from A24C A39G to A24C A39T, the fraction ligated falls from 0.774 to 0.197.

Going from A24C A39C to T23C T43A, the fraction ligated rises from 0.131 to 0.815.

Compared with T23C T43G, T23C T43C is higher in fraction ligated: 0.745 for the first, 0.759 for the second.

Compared with A24C A36C, A24C A36T is higher in fraction ligated: 0.763 for the first, 0.767 for the second.

First: A24C A36G
Second: T23A C42A
The fraction ligated of the first is lower: 0.0223 for the first, 0.817 for the second.

Compared with T23A C42G, T23A C42T is lower in fraction ligated: 0.822 for the first, 0.817 for the second.

First: T23C C28G
Second: T23C C28A
The fraction ligated of the first is higher: 0.732 for the first, 0.73 for the second.

Compared with T23C C28T, T23G G34C is higher in fraction ligated: 0.777 for the first, 0.799 for the second.

Compared with T23G G34A, T23G G34T is lower in fraction ligated: 0.802 for the first, 0.794 for the second.

Going from T23C G46A to T23C G46T, the fraction ligated falls from 0.8 to 0.614.

First: T23C G46C
Second: A24C A57C
The fraction ligated of the first is higher: 0.738 for the first, 0.368 for the second.

A24C A57T gave a fraction ligated of 0.55.
